Biological target: Foxn1 having a Flag tag (expressed from the Foxn1 expression vector, CMV promoter, in mouse epidermal cells)
Test: cell-based or functional assay

- expression level of luciferase (reporter with a Foxn1 binding region upstream of an SV40 minimum promoter), relative to Foxn1 only = 1: 5 fold
Substance: AFF-4 having a C-Myc tag (expressed from the AFF-4 expression vector, CMV promoter, in mouse epidermal cells)

Reference: patent US20110076303A1
